Measured values: paper PMC2797226 (The Journal of Biological Chemistry, 2009)

T1: His6-tagged Lhs1p (wild type) (S. cerevisiae, UniProt P36016 21-881)
T1 sequence: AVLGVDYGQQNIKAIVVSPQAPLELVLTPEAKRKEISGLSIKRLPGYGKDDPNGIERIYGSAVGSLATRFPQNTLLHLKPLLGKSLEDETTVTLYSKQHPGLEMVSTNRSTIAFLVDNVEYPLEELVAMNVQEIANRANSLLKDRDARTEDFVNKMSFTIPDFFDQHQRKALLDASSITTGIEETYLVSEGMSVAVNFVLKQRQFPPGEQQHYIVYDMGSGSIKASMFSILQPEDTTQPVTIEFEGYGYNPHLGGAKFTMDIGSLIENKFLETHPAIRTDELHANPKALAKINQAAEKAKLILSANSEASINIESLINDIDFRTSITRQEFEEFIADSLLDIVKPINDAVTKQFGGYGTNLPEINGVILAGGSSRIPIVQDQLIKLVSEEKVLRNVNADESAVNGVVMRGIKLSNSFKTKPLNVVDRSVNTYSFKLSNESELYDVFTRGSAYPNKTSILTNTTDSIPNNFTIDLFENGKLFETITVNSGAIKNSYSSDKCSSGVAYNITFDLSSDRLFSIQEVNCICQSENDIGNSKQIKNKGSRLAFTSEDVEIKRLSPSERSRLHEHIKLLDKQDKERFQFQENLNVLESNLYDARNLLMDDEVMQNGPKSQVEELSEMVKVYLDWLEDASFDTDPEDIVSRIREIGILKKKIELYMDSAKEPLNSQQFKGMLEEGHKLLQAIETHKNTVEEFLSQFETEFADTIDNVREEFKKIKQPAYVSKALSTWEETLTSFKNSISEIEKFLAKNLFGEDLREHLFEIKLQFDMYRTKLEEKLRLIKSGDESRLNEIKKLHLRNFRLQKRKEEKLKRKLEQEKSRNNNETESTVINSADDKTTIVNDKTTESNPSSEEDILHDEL


Target: T1, His6-tagged Lhs1p (wild type)
Test: pull-down

| Binder | binding result |
| --- | --- |
| GST-tagged Kar2p (wild type) (natural protein) not shown | binds |
| GST-tagged Kar2p(G246D) (natural protein) not shown | binds |
